{
  "source": "patent US11298427B2",
  "about": "“Prodrugs comprising a pyroglutamate linker” (Ascendis Pharma A/S, priority 2015, dated 2022)",
  "test": "hydrolysis / release kinetics of linker-peptide conjugates in buffer at 37° C., LCMS analysis, half-life by curve fitting",
  "type": "physicochemical",
  "method": "The hydrolysis kinetics of PEGylated linker-peptide conjugate 8 were studied at pH 7.4, 37° C. and pH 8.9, 37° C. Therefore, the starting material 8 was dissolved in two different buffers (60 mM phosphate, pH 7.4 and 100 mM borate pH 8.9, respectively). The resulting solutions were incubated in a water bath at 37° C. At given points in time samples were withdrawn, quenched and analyzed by LCMS. Curve fitting software was applied to determine the corresponding half-life of the release.\nRelease kinetics were setup and analyzed according to example 5 with additional buffers at 37° C.\nRelease kinetics were setup and analyzed according to example 5 with changed buffers.",
  "key": {"[1]": {"settings": "sodium phosphate buffer, pH 7.4, 100 mM sodium phosphate, pH 7.4, 37° C., read-out: half-life (converted)"}},
  "note": "Like-named read-outs stand apart in the source and are kept apart here.",
  "data": [
    {"smiles": "COCCOCCOCCOCCOCCOCCOCCOCCNC(=O)[C@@H](N)CCC(=O)NCCCC[C@H](NC(=O)[C@H](CO)NC(C)=O)C(=O)N[C@@H](Cc1ccc(O)cc1)C(=O)O", "note": "[Compound 8]", "values": [
      {"measurement": "half-life", "setting": "borate buffer, pH 8.9, 100 mM borate, pH 8.9, 37° C., read-out: half-life of release of Ac-Ser-Lys-Tyr-OH (9) (converted)", "value": 220, "unit": "days"},
      {"measurement": "half-life", "setting": "phosphate buffer, pH 7.4, 60 mM phosphate, pH 7.4, 37° C., read-out: half-life of release of Ac-Ser-Lys-Tyr-OH (9) (converted)", "value": 56, "unit": "days"}
    ]},
    {"smiles": "CN[C@@H](CCC(=O)NCCCC[C@H](NC(=O)[C@H](CO)NC(C)=O)C(=O)N[C@@H](Cc1ccc(O)cc1)C(=O)O)C(=O)NCCOCCOCCOCCOCCOCCOCCOCCOC", "note": "[Compound 25b]", "values": [
      {"measurement": "half-life", "setting": "[1]", "value": 164, "unit": "days"}
    ]},
    {"smiles": "COCCOCCOCCOCCOCCOCCOCCOCCN(C)C(=O)[C@@H](N)CCC(=O)NCCCC[C@H](NC(=O)[C@H](CO)NC(C)=O)C(=O)N[C@@H](Cc1ccc(O)cc1)C(=O)O", "note": "[Compound 25a]", "values": [
      {"measurement": "half-life", "setting": "[1]", "value": 26, "unit": "days"}
    ]},
    {"smiles": "CN[C@@H](CCC(=O)NCCCC[C@H](NC(=O)[C@H](CO)NC(C)=O)C(=O)N[C@@H](Cc1ccc(O)cc1)C(=O)O)C(=O)N(C)CCOCCOCCOCCOCCOCCOCCOCCOC", "note": "[Compound 25c]", "values": [
      {"measurement": "half-life", "setting": "HEPES buffer, pH 7.4, 60 mM HEPES, 130 mM NaCl, pH 7.4, 37° C., read-out: half-life (converted)", "value": 149, "unit": "days"},
      {"measurement": "half-life", "setting": "sodium borate buffer, pH 9, 100 mM sodium borate, pH 9.0, 37° C., read-out: half-life (converted)", "value": 92, "unit": "days"},
      {"measurement": "half-life", "setting": "sodium citrate buffer, pH 4, 100 mM sodium citrate, pH 4.0, 37° C., read-out: half-life (converted)", "value": 129, "unit": "days"},
      {"measurement": "half-life", "setting": "sodium citrate buffer, pH 5.5, 100 mM sodium citrate, pH 5.5, 37° C., read-out: half-life (converted)", "value": 207, "unit": "days"},
      {"measurement": "half-life", "setting": "sodium citrate buffer, pH 6.5, 30 mM sodium citrate, pH 6.5, 37° C., read-out: half-life (converted)", "value": 339, "unit": "days"},
      {"measurement": "half-life", "setting": "sodium citrate buffer, pH 6.5, 100 mM sodium citrate, pH 6.5, 37° C., read-out: half-life (converted)", "value": 336, "unit": "days"},
      {"measurement": "half-life", "setting": "sodium phosphate buffer, pH 6.5, 100 mM sodium phosphate, pH 6.5, 37° C., read-out: half-life (converted)", "value": 35, "unit": "days"},
      {"measurement": "half-life", "setting": "sodium phosphate buffer, pH 7.4, 30 mM sodium phosphate, pH 7.4, 37° C., read-out: half-life (converted)", "value": 55, "unit": "days"},
      {"measurement": "half-life", "setting": "sodium phosphate buffer, pH 7.4, 60 mM sodium phosphate, pH 7.4, 37° C., read-out: half-life (converted)", "value": 36, "unit": "days"},
      {"measurement": "half-life", "setting": "[1]", "value": 55, "unit": "days"},
      {"measurement": "half-life", "setting": "sodium phosphate buffer, pH 7.4, 200 mM sodium phosphate, pH 7.4, 37° C., read-out: half-life (converted)", "value": 17, "unit": "days"}
    ]}
  ]
}
